Test results reported in patent US7423017B2, “Method for treating cartilage disorders” (Genentech, Inc., priority 1997, dated 2008).
“Also recorded” adds a separate entry of the source. Marks after values point to notes of the source that are not given here. Positions of bridges follow the written chain, without caps; N, C: chain ends. Residues, ends and D or L forms follow the SMILES beside them. No end group written: not given here.

Tests used:
[1] = test system: human articular cartilage explants; test: human articular cartilage explants from diseased joints: matrix synthesis (35S-sulfate uptake); type: cell-based; conditions: for matrix synthesis in diseased human articular cartilage: 40 ng/ml
Protocol: The metacarpophalangeal joint of a six-month old pig was cultured as described above for bovine articular cartilage in Example 8. This explant was cultured in media alone or in media with D12K, D12R, or wild-type IGF-1 (at 10 nM) alone or in the presence of IL-1α at 1 ng/ml, as described above. Human explants were from patients undergoing joint replacement surgery. Articular cartilage was harvested, aliquoted (40-45 mg/tube) and cultured as above. […] Fresh media was added on days 0, 1, 2, and 3. Matrix breakdown was determined by measuring the amount of proteoglycans in the media using the DMMB assay as set forth above. Matrix (proteoglycan) synthesis was determined by measuring ^35S-sulfate uptake as set forth above.
Human articular cartilage explants were cultured in media or treated with IGF-1 by itself or in combination with either BP3-40 or BP3-15 at 0.1 mg/ml as set forth above. Matrix breakdown was determined by measuring the release of proteoglycans into media as described above. Matrix synthesis was determined by counting the amount of ^35S-sulfate incorporated into the cartilage tissue as described above.
The same Material and Methods (for human tissue) were used as described above, using articular cartilage explants from human joints removed from patients undergoing joint replacement. These explants were cultured with IGF-1 alone at 40 ng/ml, or IGF-1 with BP1-17, BP3-15, or BP1-16 (0.1 mg/ml), or IGF-1 with buffer (HEPES).

IGFBP-1 [2] = molecular target: T1, IGFBP-1 (Homo sapiens, UniProt P08833); test: BIACORE kinetics: IGFBP-1 binding to immobilized IGF-1 variants; parameters: made in house; host or cells: CHO cells; conditions: for Binding to IGFBP-1 ka: 25 C; for Binding to IGFBP-1 KD: kd/ka
T1 sequence (P08833 26-259): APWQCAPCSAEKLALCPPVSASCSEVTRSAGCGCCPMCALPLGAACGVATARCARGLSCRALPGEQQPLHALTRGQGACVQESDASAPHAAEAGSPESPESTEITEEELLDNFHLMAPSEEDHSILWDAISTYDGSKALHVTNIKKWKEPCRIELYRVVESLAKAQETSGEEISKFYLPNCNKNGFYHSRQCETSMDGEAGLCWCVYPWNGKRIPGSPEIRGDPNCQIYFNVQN
Protocol: (§1) The binding affinities of the IGF variants for IGFBP-1 and IGFBP-3 were determined using a BIACORE™-2000 real time kinetic interaction analysis system (Biacore, Inc., Piscataway, N.J.) to measure association (ka) and dissociation (kd) rates. Carboxymethylated dextran biosensor chips (CM5, BIAcore Inc.) were activated with EDC (N-ethyl-N′-(3-dimethylaminopropyl)-carbodiimide hydrochloride) and NHS(N-hydroxysuccinimide) according to the supplier's instructions. For immobilization, IGF mutants in 20 mM sodium acetate, pH 4.8, were injected onto the biosensor chip at a concentration of 50 μg/ml to yield approximately 450-600 RU's (resonance-responce units) of covalently-coupled protein. Unreacted groups were blocked with an injection of 1 M ethanolamine. Kinetic measurements were carried out by injecting two-fold serial dilutions (starting at 1 μM) of either IGFBP-1 or IGFBP-3 in running buffer (PBS, 0.05% TWEEN 20™, 0.1% ovalbumin, 0.1% sodium azide) at 25 °C using a flow rate of 20 μl/min. Association rates (ka) and dissociation rates (kd) were calculated separately using a 1:1 Langmuir™ association model in the BIACORE™ evaluation software v. 3.0. The equilibrium dissociation constant (KD) was calculated as kd/ka.
(§2) For measurements of IGFBP-1 binding to IGF-1, kinetics experiments were conducted using a single-cysteine IGF-1 variant, Y31C, that was immobilized onto the sensor chip surface via a disulfide linkage (BIACORE™ System Manual Supplement, 5a-1, Pharmacia (1991)).

IGFBP-3 [3] = molecular target: T2, IGFBP-3 (Homo sapiens, UniProt P17936); test: BIACORE kinetics: IGFBP-3 binding to immobilized IGF-1 variants; conditions: for Binding to IGFBP-3 ka: 25 C; for Binding to IGFBP-3 KD: kd/ka; for IGFBP-3 ka / IGFBP-3 kd: Table XV
T2 construct: made in house
T2 sequence (P17936 28-291): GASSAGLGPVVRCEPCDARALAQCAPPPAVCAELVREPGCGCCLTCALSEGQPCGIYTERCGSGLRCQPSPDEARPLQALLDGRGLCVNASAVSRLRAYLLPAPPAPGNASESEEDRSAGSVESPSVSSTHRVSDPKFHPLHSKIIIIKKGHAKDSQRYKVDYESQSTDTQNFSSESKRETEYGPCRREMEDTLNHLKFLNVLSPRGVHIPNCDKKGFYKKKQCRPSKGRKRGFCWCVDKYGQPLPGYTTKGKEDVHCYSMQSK
Protocol: as §1

IGFBP-1 [4] = test: BIACORE kinetics: IGFBP-1 binding to immobilized IGF-1 variants; parameters: species or system human; conditions: from relative KD values
Protocol: as §1, §2

IGFBP-1 [5] = molecular target: T1, IGFBP-1; test: competitive phage ELISA of IGF-1 mutants, IGFBP-1; type: binding; parameters: made in house; host or cells: CHO cells; conditions: phage display, soluble IGFBP-1 competitor
Protocol: (§3) An alanine-scanning mutagenesis approach (Cunningham and Wells, Science, 244: 1081-1085 (1989); U.S. Pat. No. 5,834,250) was used to remove that portion of each side chain of IGF-1 beyond the beta carbon. The contribution of these atoms to the free energy of binding of the IGF-1 analog to IGFBP-1 or to IGFBP-3 was then assessed by competitive phage ELISA. In this assay, IGFBP-1 or IGFBP-3 is used to inhibit IGF-phage mutants from binding to an IGFBP-1- or IGFBP-3-coated immunosorbant plate.
(§4) Immunosorbent plates (Nunc, MAXISORP™, 96 wells) were coated with 100 μl/well of 1 μg/ml IGFBP-1 or IGFBP-3 in PBS buffer pH 7.2 at 4° C. overnight. The plates were then blocked with 0.5% TWEEN 20™/PBS (also used as binding buffer) for 2 hours at room temperature (proteinaceous blocking agents like bovine serum albumin were avoided to prevent potential IGF or IGFBP contamination). E. coli cells (XL1-Blue, Stratagene) freshly transformed with phagemid vector were grown overnight in 5 mL 2YT medium (Sambrook et al., supra) in the presence of M13-VCS helper phage (Stratagene). Phage particles were harvested and resuspended in PBS buffer as described in Lowman, H. B., “Phage Display of Peptide Libraries on Protein Scaffolds,” in Cabilly, S. (ed.), Combinatorial Peptide Library Protocols (Humana Press Inc.: Totowa, N.J., 1998), pp. 249-264. Then phage concentrations were normalized to yield a maximal ELISA signal of 0.2-0.4 for each mutant (Lowman, in Cabilly, S. (ed.), supra). Threefold serial dilutions of soluble competitor were prepared on non-absorbent microtiter plates (Nunc, F, 96 wells) with binding buffer (0.5% TWEEN 20™/PBS) containing phage at the previously determined concentrations. The dilution range of competitor protein extended over six orders of magnitude, starting at 5 μM for IGFBP-1 and 500 nM for IGFBP-3. After blocking, the plates containing immobilized target were washed with 0.05% TWEEN™/PBS buffer and subsequently incubated with 80 μl/well of the premixed phage-competitor solutions for 1 hour at room temperature. After washing, bound phage was detected with 80 μl/well of a solution containing a primary rabbit anti-phage polyclonal antibody and a secondary goat anti-rabbit monoclonal antibody-horseradish peroxidase conjugate in 0.5% TWEEN 20™/PBS. o-Phenylenediamine (Sigma) and tetramethylbenzidine (Kirkegaard and Perry) were used as chromogenic substrates, resulting in product detection at 492 and 450 nm, respectively. IC50 values were determined by fitting the binding data to a generic saturation curve (Lowman, in Cabilly, S. (ed.), supra). At least two individual clones of each IGF-1 mutant were assayed. Numbers in Table XIII represent mean±standard deviation of individually assessed IC50 values.

IGFBP-1 [6] = test: competitive phage ELISA of IGF-1 mutants, IGFBP-1; type: binding, human; conditions: relative IC50 IGFBP-1/relative IC50 IGFBP-3
Protocol: as §3, §4

IGFBP-3 [7] = molecular target: T2, IGFBP-3; test: competitive phage ELISA of IGF-1 mutants, IGFBP-3; type: binding; conditions: phage display, soluble IGFBP-3 competitor
Protocol: as §3, §4

[8] = blood clearance, pharmacokinetics and tissue distribution of radiolabeled IGF-1 variants, IV in rats; type: in vivo, rat
IGFBP-3 [9] = molecular target: T2, IGFBP-3; test: BIACORE competition assay: IGFBP-3 binding to immobilized IGF-1
Protocol: IGF-1 was immobilized on a dextran chip for inhibition assays using a BIACORE™ 2000 surface-plasmon-resonance device (BIAcore, Inc., Piscataway, N.J.) to measure free binding protein. IGF-1 was biotinylated as described above, and injected over a chip to which streptavidin had been coupled (BIAcore, Inc.) to give 400 to 800 RU (response units) of immobilized IGF-1. […] Serial dilutions of peptide were mixed with a constant concentration (40 nM) of IGFBP-3. After incubation for >1 hour at room temperature, an aliquot of 20 μL was injected at a flow rate of 20 μL/min over the IGF-1 chip. Following the injection, a response reading was taken to measure the relative amount of IGFBP-3 bound to the IGF-1.

## E3A/F49A: double mutant of IGF-1 combining point mutations E3A and F49A
[1]
  matrix synthesis in diseased human articular cartilage: stimulated matrix synthesis in diseased human articular cartilage

## R36A: IGF-1 single alanine mutant
IGFBP-1 [2]
  Binding to IGFBP-1 ka: 4.0 ± 0.2 ×10^4 M^−1s^−1
  Binding to IGFBP-1 KD: wild-type kinetics
IGFBP-3 [3]
  Binding to IGFBP-3 ka: 4.0 ± 0.1 ×10^5 M^−1s^−1
  Binding to IGFBP-3 KD: wild-type kinetics
IGFBP-1 [4]
  Specificity Relative BP-1 / Relative BP-3: 1.4

## T4A: IGF-1 single alanine mutant
IGFBP-1 [2]
  Binding to IGFBP-1 ka: 1.9 ± 0.2 ×10^4 M^−1s^−1
IGFBP-1 [5]
  IC50: 19.4 ± 6.4 nM
IGFBP-1 [6]
  relative specificity: 2.2
IGFBP-3 [3]
  Binding to IGFBP-3 ka: 1.8 ± 0.6 ×10^5 M^−1s^−1
IGFBP-1 [4]
  Specificity Relative BP-1 / Relative BP-3: 3.3
IGFBP-3 [7]
  IC50: 0.8 ± 0.02 nM

## G1S-A70V: IGF-1 double mutant, first and last amino acids changed; template for alanine scan
IGFBP-1 [2]
  Binding to IGFBP-1 ka: 3.2 ± 0.2 ×10^4 M^−1s^−1
IGFBP-1 [6]
  relative specificity: 1.0
IGFBP-3 [3]
  Binding to IGFBP-3 ka: 2.9 ± 0.8 ×10^5 M^−1s^−1
IGFBP-1 [4]
  Specificity Relative BP-1 / Relative BP-3: 0.7

## ^125I-F49A: radiolabeled F49A IGF-1
[8]; single IV dose in rats
  Half-life t1/2^α: 3.84 ± 3.12 min
  Half-life t1/2^β: 0.971 ± 0.336^+ hr
  Half-life t1/2^γ: 8.97 ± 4.50 h
  clearance: 427 ± 125*^+ ml/hr/kg
  steady-state distribution volume: 3201 ± 488*^+ ml/kg

## F16A/F49A: double mutant of IGF-1, F16A and F49A
[1]
  matrix synthesis in diseased human articular cartilage: stimulated matrix synthesis in diseased human articular cartilage
IGFBP-3 [3]
  IGFBP-3 ka: 0.4 ± 0.1 ×10^5 M^−1
  IGFBP-3 kd: 38.6 ± 2.7 ×10^−4 s^−1

## CRAGPLQWLCEK-nh2 (CRAGPLQWLCEK-NH2; disulfide 1-10 (inferred)) [BP1-17]
[1]; IGF-1 40 ng/ml, peptide 0.1 mg/ml
  matrix synthesis, IGF-1 in combination with peptide: to some extent

## P39A: IGF-1 single alanine mutant
IGFBP-1 [2]
  Binding to IGFBP-1 ka: 3.1 ± 0.2 ×10^4 M^−1s^−1
  Binding to IGFBP-1 KD: wild-type kinetics
IGFBP-3 [3]
  Binding to IGFBP-3 ka: 2.7 ± 0.2 ×10^5 M^−1s^−1
  Binding to IGFBP-3 KD: wild-type kinetics
IGFBP-1 [4]
  Specificity Relative BP-1 / Relative BP-3: 0.7

## F49A: IGF-1 variant wherein phenylalanine at position 49 is changed to alanine
IGFBP-1 [2]
  Binding to IGFBP-1 ka: 1.26 ± 0.8 ×10^4 M^−1s^−1
[1]
  matrix synthesis in diseased human articular cartilage: stimulated matrix synthesis in diseased human articular cartilage
IGFBP-1 [5]
  IC50: > 1000 nM
IGFBP-3 [3]
  Binding to IGFBP-3 ka: 2.7 ± 0.7 ×10^5 M^−1s^−1
  IGFBP-3 ka: 2.7 ± 0.7 ×10^5 M^−1
  IGFBP-3 kd: 17.1 ± 0.9 ×10^−4 s^−1
[8]; radiolabeled, IV, rats
  rate of clearance from blood: cleared at a faster rate compared to wild-type human IGF-1
[8]; radiolabeled, IV, rats, 5, 15, 30 minutes
  kidney tissue-to-blood ratio: accumulate at statistically significant higher levels in the kidney compared to wild-type IGF-1; also recorded: accumulate at statistically significant higher ratios in the kidney compared to wild-type IGF-1
[8]; single IV dose in rats
  clearance: 427 ± 125 mL/h/kg
IGFBP-1 [4]
  Specificity Relative BP-1 / Relative BP-3: 16.7
IGFBP-3 [7]
  IC50: 2.72 ± 1.11 nM

## V11A: IGF-1 single alanine mutant
IGFBP-1 [2]
  Binding to IGFBP-1 ka: 1.9 ± 0.1 ×10^4 M^−1s^−1
IGFBP-3 [3]
  Binding to IGFBP-3 ka: 3.1 ± 0.5 ×10^5 M^−1s^−1
IGFBP-1 [4]
  Specificity Relative BP-1 / Relative BP-3: 1.1

## CC(C)C[C@@H]1NC(=O)[C@H](Cc2ccc(O)cc2)NC(=O)[C@H](Cc2c[nH]c3ccccc23)NC(=O)[C@H](CCC(=O)O)NC(=O)[C@H](C)NC(=O)[C@H](C(C)C)NC(=O)[C@@H]2CCCN2C(=O)[C@H](Cc2c[nH]c3ccccc23)NC(=O)[C@@H](N)CSSC[C@@H](C(=O)N[C@@H](CC(N)=O)C(=O)O)NC1=O [BP3-25] (H-CWPVAEWYLCN-OH; disulfide 1-10; N-terminus and C-terminus assumed)
IGFBP-3 [9]
  IC50: 46000 nM
IGFBP-3 [9]; IGF-1 inhibition, wt = BP3-01-ox
  IC50 (mut) / IC50 (wt): 23
